Assay: label from the status in PepcDB records

Sequence: MHEESGPSWGMRGLRKWLGTAPETRDELLKLVQDSRRFLEPDTVAMLEGVLDLPATKVREVMTPRTSIISLQEDDELLDILHVLIESAHSRFPVFSSDQPDNVVGILLAKDLLPFLTEPSAKVDVRALMRQPLFVPESARSDQVLRMLKHTQTHIAVVIDEYGTTSGLVTLEDILEEIVGEIEDEHDNVDEEAQYIVPDHAHTTANSWMVQALTPIEHFNTVLDADFSDDEVETVGGLLLQEIGLVSDLQGQVIELDDWQFTIIEADARTIHLIRAVHK
- protein production: failed

Sequence: MPDTKIVDANNKFGFKLFSEIAKQDGNAKNISVSPTSVAIALAMTYNGASGSTQKAMAKTLELQGISLPELNSGYASLNKLLQNPGENVQLTIANSLWVNQDVSLRPDFVQTTRDFYQAKVTNLDFQNVTAVNTINSWVQENTKGKIDKIVDNIEPNQALFLINAIYFNGKWSNAFDKSQTTPQTFYTASGQQKQHPMMSQTGEYRYYETPQFQSVSLPYGQDGKVSLYIFLPTKNSNLKAFSQNLNAENWEKWMPQFRNREGSIRLPRFQTDYDITLNDALKSLGMAEAFSNKANFSGIGDNLTISQVRHKTVIEVNEEGTEASAATSVGMVATSLREPQQPFKMIVDRPFFYAIRDNQSKNILFMGAVVEPN
- protein production: failed

Sequence: MDWYVGTEWEDKNRGLAKKVIGLQFTEMDKPTIISTVEFSVNKKATNLGGRPSKYLVSDESATYPQKHSLEMGTSLTAVDCYLELLLQQFVPGETAACSITTKTGERIEFELKLEKIVKNTQVEKLSAAEIYEVALRLKESGVATFKTFPKFAFDYFVRAAKLLITYKPFDKLTKKTNGINGQAVEELFIQIQTNLAACLLQEKRYEHVIYHTQFVETEESPSEKSIYRRALAYYHLKEFAKAQATIERMPNYEEKREFSKLRDNIAVSWKDSKAHYKEVVQRMFS
- protein production: failed

Sequence: MQLGFAMLADPILLITILLGFAMAWAIGANDAANSMSTAVGAGAITPRQAVIIAGVLEFMGAYFFGKTVTETIRKGIIDPSKITDPNVLIFGSIAALIGATIWLVIATKYGLPVSTTHSIIGGIVGYGIVYGGMSIVNWDKMIKVVLSWILSPIVGAIFAYLVFRALSKTVLQSKDPVKSAKRWSPFWIGLAFVVIGTMFYIKVLHGNSLLEGFLKYGMPAGILTFIVVSLILEKRFPATDPYLGAERVFRRVQVITSAYVALAHGANDVANAIGPVAAVYTVAMFGLAGAKVPVPRWILALGGLGIAIGVATYGYKVMETVGKKITELTNTRGFTIDFSAATVVLIASWLGMPISTTHTVVGAVIGVGLARGIKAINKDIVKDIIISWFVTVPAAGVIAGIIFKALMMLMG
- protein production: failed

Sequence: MGHHHHHHSHIEETTMTTQTPAPIQAPSAILPLPGQSVERLCVDPRHRQGPVNLLSDPEQGVEVTGQYEREKAGFSWIEVTFKNPLVWVHASPEHVVVTRNRRSSAYKWKETLFSVMPGLKMTMDKTGLLLLSDPDKVTIGLLFWDGRGEGLRLLLRDTDRFSSHVGGTLGQFYQEVLWGSPAASD
- protein production: failed

Sequence: MDMKRRIHLELRNRTPAAVRELVLDNCKSNDGKIEGLTAEFVNLEFLSLINVGLISVSNLPKLPKLKKLELSENRIFGGLDMLAEKLPNLTHLNLSGNKLKDISTLEPLKKLECLKSLDLFNCEVTNLNDYRESVFKLLPQLTYLDGYDREDQEAPDSDAEVDGVDEEEEDEEGEDEEDEDDEDGEEEEFDEEDDEDEDVEGDEDDDEVSEEEEEFGLDEEDEDEDEDEEEEEGGKGEKRKRETDDEGEDD
- protein production: not failed

Sequence: MATETLTKSDAITQSLRAAVDRNFNDQVAFLQRMVQFRSVRGEEAPQQEWLAQQFADRGYKVDTFSLADVDIASHPKAAPMDTIDPAGSMQVVATADSDGKGRSLILQGHIDVVPEGPVDLWSDPPYEAKVRDGWMIGRGAQDMKGGVSAMIFALDAIRTAGYAPDARVHVQTVTEEESTGNGALSTLMRGYRADACLIPEPTGHTLTRAQVGAVWFRLRVRGTPVHVAYSETGTSAILSAMHLIRAFEEYTKELNAQAVRDPWFGQVKNPIKFNVGIIKGGDWASSTAAWCELDCRLGLLTGDTPQEAMRGIEKCLADAQATDSFLSENPAELVWSGFQADPAVCEPGGVAEDVLTAAHKAAFNAPLDARLSTAVNDTRYYSVDYGIPALCYGPYGQGPHAFDERIDLESLRKTTLSIALFVAEWCGLRKL
- protein production: not failed
